T1: Sc Ycg1 crystallization construct;Sc Brn1 short kleisin loop (Saccharomyces cerevisiae;Saccharomyces …, UniProt Q06680;P38170 6-932;384-529, del499-555|del418-444)
T1 sequence 1: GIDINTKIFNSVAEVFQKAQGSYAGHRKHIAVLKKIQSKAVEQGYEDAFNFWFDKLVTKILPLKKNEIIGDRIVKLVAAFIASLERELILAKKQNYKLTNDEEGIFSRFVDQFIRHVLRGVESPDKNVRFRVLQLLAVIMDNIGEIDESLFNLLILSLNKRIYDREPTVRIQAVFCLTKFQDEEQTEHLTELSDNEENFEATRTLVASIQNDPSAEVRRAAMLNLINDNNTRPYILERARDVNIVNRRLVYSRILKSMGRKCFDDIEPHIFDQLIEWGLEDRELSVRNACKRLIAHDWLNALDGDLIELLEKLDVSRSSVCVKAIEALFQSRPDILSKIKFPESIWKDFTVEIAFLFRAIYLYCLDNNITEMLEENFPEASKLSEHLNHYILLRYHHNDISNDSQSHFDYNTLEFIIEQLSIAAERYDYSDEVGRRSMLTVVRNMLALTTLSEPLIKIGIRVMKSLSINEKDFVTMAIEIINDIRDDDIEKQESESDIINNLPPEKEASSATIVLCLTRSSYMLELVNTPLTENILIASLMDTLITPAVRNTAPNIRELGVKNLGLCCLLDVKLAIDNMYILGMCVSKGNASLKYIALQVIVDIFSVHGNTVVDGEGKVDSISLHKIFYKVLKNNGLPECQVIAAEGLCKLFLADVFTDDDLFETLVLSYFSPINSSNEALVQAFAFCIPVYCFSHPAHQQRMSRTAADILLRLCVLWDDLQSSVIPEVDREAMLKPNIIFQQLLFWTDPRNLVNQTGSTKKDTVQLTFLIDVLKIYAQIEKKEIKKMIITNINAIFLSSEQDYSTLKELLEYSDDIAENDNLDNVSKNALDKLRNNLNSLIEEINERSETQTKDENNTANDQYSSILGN
T1 sequence 2: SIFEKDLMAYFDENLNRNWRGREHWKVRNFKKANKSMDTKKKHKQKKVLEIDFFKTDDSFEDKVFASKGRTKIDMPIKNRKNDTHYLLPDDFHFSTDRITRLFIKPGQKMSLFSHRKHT

T2: Sc Ycg1 crystallization construct;Sc Brn1 384-529 (Saccharomyces cerevisiae;Saccharomyces …, UniProt Q06680;P38170 6-932;384-529, del499-555|)
T2 sequence 1: T1 sequence 1
T2 sequence 2: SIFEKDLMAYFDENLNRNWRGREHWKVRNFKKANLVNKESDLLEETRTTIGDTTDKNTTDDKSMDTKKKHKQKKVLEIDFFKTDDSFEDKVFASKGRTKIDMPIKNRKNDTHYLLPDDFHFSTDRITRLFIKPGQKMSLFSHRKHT

B1: 35-bp dsDNA (dsDNA)
DNA 1: CCTATAGTGAGTCGTTCGATATTACAATTCACTGG
DNA 2: CCAGTGAATTGTAATATCGAACGACTCACTATAGG
B2: 18-bp palindromic dsDNA (dsDNA)
DNA 1: GATGTGTAGCTACACATC
DNA 2: GATGTGTAGCTACACATC

Assays:
[1] = test system: Ct Ycg1 24-1006;Ct Brn1 515-634 (Chaetomium thermophilum;Chaetomium thermophilum); test: EMSA; settings: protein conc. at which free DNA is depleted; EMSA: 10 mM HEPES-KOH pH 7.5, 125 mM NaCl, 5 mM MgCl2, 1 mM DTT, 30 min, gels at 4 C, 0.2 uM 35-bp or 10 nM 2.1-kb DNA; ITC: 25 mM Tris-HCl pH 7.5, 200 mM …
[2] = test system: Ct Ycg1 24-1006;Ct Brn1 PhiD 515-634 (Chaetomium thermophilum;Chaetomium thermophilum); test: EMSA; settings: protein conc. at which free DNA is depleted; EMSA: 10 mM HEPES-KOH pH 7.5, 125 mM NaCl, 5 mM MgCl2, 1 mM DTT, 30 min, gels at 4 C, 0.2 uM 35-bp or 10 nM 2.1-kb DNA; ITC: 25 mM Tris-HCl pH 7.5, 200 mM …
[3] = test system: Ct Ycg1 24-1006;Ct Brn1 deltaN 539-634 (Chaetomium thermophilum;Chaetomium thermophilum); test: EMSA; settings: protein conc. at which free DNA is depleted; EMSA: 10 mM HEPES-KOH pH 7.5, 125 mM NaCl, 5 mM MgCl2, 1 mM DTT, 30 min, gels at 4 C, 0.2 uM 35-bp or 10 nM 2.1-kb DNA; ITC: 25 mM Tris-HCl pH 7.5, 200 mM …
[4] = test system: Ct Ycg1 24-1006;Ct Brn1 515-634 (Chaetomium thermophilum;Chaetomium thermophilum); test: ITC; settings: 2 mM Mg2+, 25 C; EMSA: 10 mM HEPES-KOH pH 7.5, 125 mM NaCl, 5 mM MgCl2, 1 mM DTT, 30 min, gels at 4 C, 0.2 uM 35-bp or 10 nM 2.1-kb DNA; ITC: 25 mM Tris-HCl pH 7.5, 200 mM …
[5] = target: Sc Smc2;Sc Smc4;Sc Ycs4;Sc Brn1 (Saccharomyces cerevisiae;Saccharomyces …, UniProt P38989;Q12267;Q06156;P38170 1-1170;1-1418;1-1176;1-754, |||); test: EMSA; lacks Ycg1; EMSA: 10 mM HEPES-KOH pH 7.5, 125 mM NaCl, 5 mM MgCl2, 1 mM DTT, 30 min, gels at 4 C, 0.2 uM 35-bp or 10 nM 2.1-kb DNA; ITC: 25 mM Tris-HCl pH 7.5, 200 mM NaCl, 2 mM MgCl2, 1 mM BME, 25 C; settings: protein: recombinant;recombinant;recombinant;recombinant; tags: ;C-terminal StrepII x3;;C-terminal His12-HA3; copies: 1;1;1;1; label: 5' 6-FAM on strand 1; blunt
[6] = target: Sc Smc2;Sc Smc4;Sc Ycs4;Sc Ycg1;Sc Brn1 BC1/2 (Saccharomyces cerevisiae;Saccharomyces …, UniProt P38989;Q12267;Q06156;Q06680;P38170 1-1170;1-1418;1-1176;1-1035;1-754, ||||K409D;R411D;K414D;K451D;K452D;K454D;K456D;K457D); test: EMSA; EMSA: 10 mM HEPES-KOH pH 7.5, 125 mM NaCl, 5 mM MgCl2, 1 mM DTT, 30 min, gels at 4 C, 0.2 uM 35-bp or 10 nM 2.1-kb DNA; ITC: 25 mM Tris-HCl pH 7.5, 200 mM NaCl, 2 mM MgCl2, 1 mM BME, 25 C; settings: protein: recombinant;recombinant;recombinant;recombinant;recombinant; tags: ;C-terminal StrepII x3;;;C-terminal His12-HA3; copies: 1;1;1;1;1; label: 5' 6-FAM on strand 1; blunt
[7] = target: T1, Sc Ycg1 crystallization construct;Sc …; test: X-ray crystallography; 5 mM MgSO4; EMSA: 10 mM HEPES-KOH pH 7.5, 125 mM NaCl, 5 mM MgCl2, 1 mM DTT, 30 min, gels at 4 C, 0.2 uM 35-bp or 10 nM 2.1-kb DNA; ITC: 25 mM Tris-HCl pH 7.5, 200 mM NaCl, 2 mM MgCl2, 1 mM BME, 25 C; settings: protein: recombinant;recombinant; tags: untagged;N-terminal His6-HRV3C; copies: 1;1; blunt, self-complementary
[8] = target: T2, Sc Ycg1 crystallization construct;Sc …; test: X-ray crystallography; crystal form I, 2.98 A, 5 mM MgSO4; EMSA: 10 mM HEPES-KOH pH 7.5, 125 mM NaCl, 5 mM MgCl2, 1 mM DTT, 30 min, gels at 4 C, 0.2 uM 35-bp or 10 nM 2.1-kb DNA; ITC: 25 mM Tris-HCl pH 7.5, 200 mM NaCl, 2 mM MgCl2, 1 mM BME, 25 C; settings: protein: recombinant;recombinant; tags: untagged;N-terminal His6-HRV3C; copies: 1;1; blunt, self-complementary

Sequence of Sc Smc2;Sc Smc4;Sc Ycs4;Sc Brn1 (P38989 whole entry, chain 1 of 4): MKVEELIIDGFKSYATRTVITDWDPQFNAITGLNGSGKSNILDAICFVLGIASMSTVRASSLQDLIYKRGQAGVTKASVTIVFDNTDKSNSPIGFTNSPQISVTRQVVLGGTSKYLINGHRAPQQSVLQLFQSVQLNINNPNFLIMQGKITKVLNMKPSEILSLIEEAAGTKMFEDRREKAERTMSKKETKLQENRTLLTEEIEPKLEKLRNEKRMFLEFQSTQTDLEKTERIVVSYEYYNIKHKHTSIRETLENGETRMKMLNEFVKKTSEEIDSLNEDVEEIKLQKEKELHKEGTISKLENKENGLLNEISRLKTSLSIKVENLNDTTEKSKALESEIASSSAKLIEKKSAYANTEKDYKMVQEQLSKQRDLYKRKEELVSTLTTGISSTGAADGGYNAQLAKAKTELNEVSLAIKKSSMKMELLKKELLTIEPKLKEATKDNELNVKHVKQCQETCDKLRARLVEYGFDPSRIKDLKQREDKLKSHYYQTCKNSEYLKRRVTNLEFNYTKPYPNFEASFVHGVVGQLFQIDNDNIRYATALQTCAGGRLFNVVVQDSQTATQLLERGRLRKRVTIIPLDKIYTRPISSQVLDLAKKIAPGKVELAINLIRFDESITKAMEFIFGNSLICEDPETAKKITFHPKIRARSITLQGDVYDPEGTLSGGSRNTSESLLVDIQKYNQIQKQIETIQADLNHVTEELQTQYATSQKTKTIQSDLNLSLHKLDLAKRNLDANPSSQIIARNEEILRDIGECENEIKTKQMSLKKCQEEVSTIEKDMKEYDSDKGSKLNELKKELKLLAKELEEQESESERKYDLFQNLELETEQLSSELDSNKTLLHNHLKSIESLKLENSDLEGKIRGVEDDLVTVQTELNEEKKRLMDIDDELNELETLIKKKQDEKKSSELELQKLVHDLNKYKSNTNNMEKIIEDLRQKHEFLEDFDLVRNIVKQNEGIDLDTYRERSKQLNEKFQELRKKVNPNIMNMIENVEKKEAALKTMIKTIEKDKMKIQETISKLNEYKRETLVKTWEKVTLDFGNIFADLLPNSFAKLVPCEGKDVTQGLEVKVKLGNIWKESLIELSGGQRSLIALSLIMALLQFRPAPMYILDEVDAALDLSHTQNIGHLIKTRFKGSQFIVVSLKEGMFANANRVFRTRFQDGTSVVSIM
Sequence of Sc Smc2;Sc Smc4;Sc Ycs4;Sc Brn1 (Q12267 whole entry, chain 2 of 4): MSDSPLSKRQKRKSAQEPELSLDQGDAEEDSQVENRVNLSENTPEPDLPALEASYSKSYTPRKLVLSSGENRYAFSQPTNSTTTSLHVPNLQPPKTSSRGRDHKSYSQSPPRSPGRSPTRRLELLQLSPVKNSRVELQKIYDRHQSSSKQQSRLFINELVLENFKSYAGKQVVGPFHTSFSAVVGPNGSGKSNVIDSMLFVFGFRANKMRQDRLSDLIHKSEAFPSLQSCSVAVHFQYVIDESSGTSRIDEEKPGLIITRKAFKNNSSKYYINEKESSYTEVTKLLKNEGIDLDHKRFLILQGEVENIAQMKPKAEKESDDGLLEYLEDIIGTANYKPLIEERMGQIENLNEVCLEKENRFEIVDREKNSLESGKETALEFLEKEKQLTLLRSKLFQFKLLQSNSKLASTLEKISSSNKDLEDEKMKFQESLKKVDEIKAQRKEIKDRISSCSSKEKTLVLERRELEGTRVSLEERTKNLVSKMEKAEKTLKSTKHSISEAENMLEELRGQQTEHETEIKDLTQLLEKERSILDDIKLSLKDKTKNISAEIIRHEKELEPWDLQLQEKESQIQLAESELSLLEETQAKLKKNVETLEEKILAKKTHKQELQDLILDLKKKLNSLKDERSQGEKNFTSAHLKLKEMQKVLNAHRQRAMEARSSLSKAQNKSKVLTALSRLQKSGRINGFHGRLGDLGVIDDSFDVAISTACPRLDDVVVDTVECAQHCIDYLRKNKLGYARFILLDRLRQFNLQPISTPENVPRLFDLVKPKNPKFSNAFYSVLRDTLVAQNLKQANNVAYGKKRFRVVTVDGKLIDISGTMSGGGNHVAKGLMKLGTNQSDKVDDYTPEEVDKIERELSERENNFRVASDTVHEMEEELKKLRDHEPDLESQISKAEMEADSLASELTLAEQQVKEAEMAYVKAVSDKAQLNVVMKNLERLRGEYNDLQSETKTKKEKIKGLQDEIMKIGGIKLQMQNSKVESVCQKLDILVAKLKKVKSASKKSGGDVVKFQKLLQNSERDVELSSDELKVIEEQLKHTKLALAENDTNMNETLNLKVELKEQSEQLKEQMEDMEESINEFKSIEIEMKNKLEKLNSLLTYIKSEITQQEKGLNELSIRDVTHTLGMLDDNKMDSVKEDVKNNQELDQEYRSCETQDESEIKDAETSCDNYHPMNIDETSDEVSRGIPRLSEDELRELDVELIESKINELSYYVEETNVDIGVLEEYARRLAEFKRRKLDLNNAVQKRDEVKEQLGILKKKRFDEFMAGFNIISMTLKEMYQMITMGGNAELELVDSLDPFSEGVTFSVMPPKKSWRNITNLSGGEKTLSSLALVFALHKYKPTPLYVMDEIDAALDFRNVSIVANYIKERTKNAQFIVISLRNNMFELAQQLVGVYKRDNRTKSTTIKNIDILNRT
Sequence of Sc Smc2;Sc Smc4;Sc Ycs4;Sc Brn1 (Q06156 whole entry, chain 3 of 4): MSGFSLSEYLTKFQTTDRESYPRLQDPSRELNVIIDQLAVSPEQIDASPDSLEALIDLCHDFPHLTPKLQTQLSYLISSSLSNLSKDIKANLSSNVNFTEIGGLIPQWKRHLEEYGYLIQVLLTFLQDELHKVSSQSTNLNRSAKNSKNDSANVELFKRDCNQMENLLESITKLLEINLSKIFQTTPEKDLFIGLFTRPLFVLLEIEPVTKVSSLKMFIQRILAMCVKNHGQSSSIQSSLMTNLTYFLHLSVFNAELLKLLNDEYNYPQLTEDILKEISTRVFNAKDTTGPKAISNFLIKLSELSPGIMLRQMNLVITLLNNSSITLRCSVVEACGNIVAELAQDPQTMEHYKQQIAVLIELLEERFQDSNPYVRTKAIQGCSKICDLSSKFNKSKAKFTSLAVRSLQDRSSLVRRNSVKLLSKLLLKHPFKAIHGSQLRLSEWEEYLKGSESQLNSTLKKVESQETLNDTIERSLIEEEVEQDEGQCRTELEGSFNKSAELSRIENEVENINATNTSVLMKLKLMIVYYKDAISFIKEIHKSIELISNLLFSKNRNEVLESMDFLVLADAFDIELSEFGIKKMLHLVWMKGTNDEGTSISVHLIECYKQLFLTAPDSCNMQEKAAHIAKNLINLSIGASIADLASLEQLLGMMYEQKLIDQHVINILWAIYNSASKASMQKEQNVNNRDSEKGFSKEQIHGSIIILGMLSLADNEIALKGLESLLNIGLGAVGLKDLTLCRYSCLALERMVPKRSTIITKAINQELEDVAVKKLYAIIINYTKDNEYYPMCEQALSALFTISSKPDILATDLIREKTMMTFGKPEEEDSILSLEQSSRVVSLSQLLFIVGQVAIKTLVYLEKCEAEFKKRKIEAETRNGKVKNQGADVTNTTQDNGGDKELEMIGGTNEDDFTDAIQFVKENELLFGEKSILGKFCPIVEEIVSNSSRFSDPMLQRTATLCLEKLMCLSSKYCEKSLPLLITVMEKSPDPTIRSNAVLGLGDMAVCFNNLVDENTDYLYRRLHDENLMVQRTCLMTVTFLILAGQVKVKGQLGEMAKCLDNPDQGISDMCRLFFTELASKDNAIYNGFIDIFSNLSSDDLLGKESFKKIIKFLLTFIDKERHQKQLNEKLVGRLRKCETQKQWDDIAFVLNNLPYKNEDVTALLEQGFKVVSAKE
Sequence of Sc Smc2;Sc Smc4;Sc Ycs4;Sc Brn1 (P38170 whole entry, chain 4 of 4): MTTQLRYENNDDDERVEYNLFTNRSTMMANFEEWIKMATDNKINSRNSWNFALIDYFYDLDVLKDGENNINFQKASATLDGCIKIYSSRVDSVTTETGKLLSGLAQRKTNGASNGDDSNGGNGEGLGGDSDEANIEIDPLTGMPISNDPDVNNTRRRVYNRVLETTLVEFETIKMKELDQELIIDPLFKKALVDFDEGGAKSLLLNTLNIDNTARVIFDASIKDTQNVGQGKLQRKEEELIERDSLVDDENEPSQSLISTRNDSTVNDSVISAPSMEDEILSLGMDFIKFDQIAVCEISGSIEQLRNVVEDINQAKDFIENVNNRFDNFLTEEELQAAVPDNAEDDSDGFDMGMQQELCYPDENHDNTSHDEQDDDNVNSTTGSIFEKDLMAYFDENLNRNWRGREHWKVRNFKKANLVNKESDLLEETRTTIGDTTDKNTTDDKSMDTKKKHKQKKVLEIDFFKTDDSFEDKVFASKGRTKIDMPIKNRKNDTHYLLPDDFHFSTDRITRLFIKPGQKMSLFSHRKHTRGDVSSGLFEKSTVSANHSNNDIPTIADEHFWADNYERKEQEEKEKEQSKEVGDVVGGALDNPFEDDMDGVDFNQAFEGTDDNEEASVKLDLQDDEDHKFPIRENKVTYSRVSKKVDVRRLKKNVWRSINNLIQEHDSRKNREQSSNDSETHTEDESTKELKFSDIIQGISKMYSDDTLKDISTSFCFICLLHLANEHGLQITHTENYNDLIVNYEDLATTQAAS

Row | Molecule | binding signal [1] [nM] | binding signal [2] [nM] | binding signal [3] [nM] | further results
1 | 2.1-kb circular supercoiled plasmid | 21 | 83 | 83 | –
2 | CCTATAGTGAGTCACAATTCACTGG (double strand) [25-bp dsDNA] | – | – | – | Kd [4]: 1700 nM
3 | CCTATAGTGAGTCGTTCGATATTACAATTCACTGG (double strand) [35-bp dsDNA] | 800 | 800 | 800 | –
4 | B1 | – | – | – | binding result [5]: no binding; binding result [6]: no binding
5 | B2 | – | – | – | binding result [7]: binds; binding result [8]: binds

— PMC5651216, “Structural Basis for a Safety-Belt Mechanism That Anchors Condensin to Chromosomes”
